Results taken from publication PMC8445963.

Molecular target: MYC-tagged Exo70 wild-type (in MTLn3 cells) (UniProt Q9UPT5)
Test: proximity ligation assay
Conditions: N = 3 experiments

Chain of UniProt Q9UPT5 (Q9UPT5 whole entry): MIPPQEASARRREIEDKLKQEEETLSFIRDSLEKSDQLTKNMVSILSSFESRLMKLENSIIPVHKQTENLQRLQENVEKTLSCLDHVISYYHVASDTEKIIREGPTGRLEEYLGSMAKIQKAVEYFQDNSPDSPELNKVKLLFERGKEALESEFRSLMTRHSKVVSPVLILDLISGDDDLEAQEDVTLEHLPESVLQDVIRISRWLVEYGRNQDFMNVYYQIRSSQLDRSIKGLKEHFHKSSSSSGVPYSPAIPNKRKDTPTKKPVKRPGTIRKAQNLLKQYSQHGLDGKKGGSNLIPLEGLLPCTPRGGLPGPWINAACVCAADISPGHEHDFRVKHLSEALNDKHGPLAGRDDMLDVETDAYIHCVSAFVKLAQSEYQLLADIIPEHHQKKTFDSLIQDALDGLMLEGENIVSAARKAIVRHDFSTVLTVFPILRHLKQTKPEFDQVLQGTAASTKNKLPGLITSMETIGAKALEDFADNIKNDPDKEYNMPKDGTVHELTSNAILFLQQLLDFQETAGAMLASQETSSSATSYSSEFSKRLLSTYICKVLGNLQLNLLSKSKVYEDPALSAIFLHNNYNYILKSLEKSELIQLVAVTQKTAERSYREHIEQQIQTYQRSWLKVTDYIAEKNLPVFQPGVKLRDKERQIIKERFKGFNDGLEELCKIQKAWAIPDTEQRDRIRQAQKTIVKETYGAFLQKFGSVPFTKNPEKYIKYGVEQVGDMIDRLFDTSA

## Flag-tagged TC10 wild-type (in MTLn3 cells) P43L; E45V; Y46H; T49A; Y54C
category: core, parent: est. 23, read off a plot
  other: % invadopodia with PLA spots at core (% invadopodia): 16
category: none, parent: est. 33, read off a plot
  other: % invadopodia with no PLA spots (none) (% invadopodia): 55
category: side, parent: est. 44, read off a plot
  other: % invadopodia with PLA spots at side (% invadopodia): 29
